# Settings: Mus musculus, pH 7.5, Thermal, Potassium phosphate 50 mM, KCl 50 mM, reversible: yes, structure 1MBG
# Chain of Transcriptional activator Myb V103I, P06876 (P06876 whole entry V103I): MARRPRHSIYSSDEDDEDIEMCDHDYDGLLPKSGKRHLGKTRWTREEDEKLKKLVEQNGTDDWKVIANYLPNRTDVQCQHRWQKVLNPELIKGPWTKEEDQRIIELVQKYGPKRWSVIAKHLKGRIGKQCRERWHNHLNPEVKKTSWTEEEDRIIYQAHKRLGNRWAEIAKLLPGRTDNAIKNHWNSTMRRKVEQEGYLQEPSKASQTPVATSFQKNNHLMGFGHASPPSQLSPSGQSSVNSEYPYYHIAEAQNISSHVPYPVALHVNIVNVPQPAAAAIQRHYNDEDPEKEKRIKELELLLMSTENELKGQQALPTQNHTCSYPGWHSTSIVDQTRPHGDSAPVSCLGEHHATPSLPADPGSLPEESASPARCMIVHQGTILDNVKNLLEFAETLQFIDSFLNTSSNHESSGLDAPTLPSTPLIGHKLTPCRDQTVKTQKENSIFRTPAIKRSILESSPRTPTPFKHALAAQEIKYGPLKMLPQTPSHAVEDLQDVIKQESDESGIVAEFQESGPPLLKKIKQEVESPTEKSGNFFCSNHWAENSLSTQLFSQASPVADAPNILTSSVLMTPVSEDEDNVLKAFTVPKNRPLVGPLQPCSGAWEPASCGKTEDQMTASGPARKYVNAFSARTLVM
# Chain of Transcriptional activator Myb V103L, P06876 (P06876 whole entry V103L): as the sequence (P06876 whole entry V103I) above, with I103L counted along it
# Chain of Transcriptional activator Myb V103A, P06876 (P06876 whole entry V103A): as the sequence (P06876 whole entry V103I) above, with I103A counted along it
Substance,Tm (CD),"change of melting temperature, mutant - wild type (higher = more stable) (CD)",Tm (DSC),unfolding enthalpy (calorimetric) (DSC)
"Transcriptional activator Myb V103A, P06876",2.8 °C,-36.8 °C,,
"Transcriptional activator Myb V103I, P06876",46.6 °C,7 °C,47.5 °C,32.1 kcal/mol
"Transcriptional activator Myb V103L, P06876",62 °C,22.4 °C,62 °C,41.8 kcal/mol

# — FireProtDB (doi:10.1006/jmbi.1999.3099)
